Measured values reported in the nanobody polyreactivity screen of Harvey et al. (2022).

Assay: yeast display, Sf9 membrane polyspecificity reagent, FACS + sequencing; frameworks hold sequencing errors
Summary of the method: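 Sorting gates, low and high (top ~1%), were placed on anti-HA fluorescence to track expression and on streptavidin fluorescence to track reagent binding. A clone's polyreactivity label is taken from the gate it came out of. The reagent was 10% biotinylated, detergent-solubilized Sf9 membrane, applied for 1 hour at 4 °C to galactose-induced yeast display cells.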

Row | Sequence | polyreactivity (PSR sort gate)
1 | QVQLVESGGGLVQPGGSLRLSCAASGRIFYRYAMGWYRQAPGKERELVAAITARGGSTYYADSVKGRFTISRDNAKNTVYLQMNCLKPEDTAVYYCNKLLSNPYYPSYDYWGQGTQVTVSS | high polyreactivity
2 | QVQLVESGGGLVQPGGSLRLSCAASGRSFFGYPMGWYRQAPGKERELVATISGSGASTYYADSVKGRFTISRDNAKNTVYLQMNSLKPEDTAVYYFAARYVTNRHSRYYYWGQGTQVTVSS | high polyreactivity
3 | QVQLVESGGGLVQPGGSLRLSCAASGRTLHYNVMGWYRQAPGKEREFVAAITKSGGITYYADSVKGRFTISRDNAKNTVYLQMNSLKPEETAVDYCAADSPSWSWRISWSRYDYWGQGTQVTVSS | low polyreactivity
4 | QVQLVESGGGLVQPGGSLRLSCAASGSIFAWYVMGWYRQAPGKERELVAGIDTSGGTTFYADSVKGRFTISRDNAKNTVYVQMNSLKPEDTAVYYCAADTWYRGPWEFDYWGQGTQVTVSS | low polyreactivity
5 | QVQLVESGGGLVQPGGSLRLSCAASGYTSSPYAMGWYRQAPGKERELVAGISSGGSTYADSVKGRFTISRDNAKNTVYLQMISLKPEDTAVYYCADVWYYWTFEFDYWGQGTQVTVSS | high polyreactivity
6 | QVQLVESGGGLVQPGGSLRLSCSASGRIFDNYAMGWYRQAPGKEREFVARITSSGGSTYYADSVKGRFTISRDYAKNTVYLQMYSLKPEDTAVYYCAKRGWSSYCRYDSWGQGTQVTVSS | high polyreactivity
7 | QVQLVESGGGLVQPGGSLRLSSAASGITFPDYAMGWYRKAPGKERELVATITSSGGRTYYAHSVKGRFTISRDNAKNTVYLQMKSLKTEDTAVYYCAARRAYIRTLYYWGQGTQVTVSS | high polyreactivity
8 | QVQLVESGGGLVQPGGSLRLSWAASGSIFVGYAMGWYRQAPGKERELVAAISTRGGSTYYADSVKGRFTISRDNAKNTVYLQINSLKPEDTAVYYCAADYLDSTYGYVFGWDDYWGQGTLVTVSS | low polyreactivity
9 | QVQLVESGGGLVQPGGSLSLSCAASGFTFTYYAMGWYRQAPGKEMELVAAISWSGDSTYYADSVKGRFTISRDNAKNNVYLQMNSLKPEDSAVYYCGSEYSHTYDYWGQGTLVTVSS | low polyreactivity
10 | QVQLVESGGGLVQPGGTLRLTCAGSGSILTGNAMRWYRQAPGKERELVAAITSGGSTYYADSVKGRFTISRDNAKNTVYLQMNSLNQADSAGYYCAASRWRPLERGTTWLHDYWGQGTQVTVSS | low polyreactivity
11 | QVQLVESGGGLVQSGCSLRLSCAASGRIFDRYAMGSYRQAPGKERELVAAISSSGGSTYYADSVKGRFTISRDHAKNTVYLLMNSLKPEDTAVYYCATGTSRYRHQRDYWGQGTQVTVSS | high polyreactivity
12 | QVQLVESGGGLVQSGGSLRLSCAASGFIFGGYAMGWYRQAPGTERELVASITWSGGRTFYADSVKGRFTISRDNAKNTVYLQMNSLKPEDTEVYYCAAGIYFTPYYYYPPNPFDYWGQGTQVTVSS | low polyreactivity
13 | QVQLVESGGGLVQSGGSLRLSCAASGRIFGAYAMGWYRQAPGKDRELVAAITSAGSTHYADSVKGRFTISRDNAKNTVYLQMNSLKPEDTAVYYCAADGIASAYVLFDAYDFLYDYWGQGTQVTVSS | low polyreactivity
14 | QVQLVESGGGLVQSGGSLRLSCAASGRIFRAYAMGWYIQAPGQERELVADITSGSGSTYYADSVKGRFTISRDYANNTVYLHMNSLKTEDTAVYYCAAYVLIRVWEYYYWGQGTQVNVSS | low polyreactivity
15 | QVQLVESGGGLVQSGGSLRLSCAASGRIFRFYTMGWYRQAPGKERELVAAITQRGGRTYYADSVKGRFTISRDNAKNTVYLQMNSLKPEDTAVYYCAATTTVAEYDYWGQGTQVTVSS | high polyreactivity
16 | QVQLVESGGGLVQSGGSLRLSCAASGRIFTHYAMGWYRQAPGKERELVAALSRSGGSTYYADSVKGRFTISRDNAKNTVYLQLNSLIPEDTADYYCDADGGRYFYRGTYREMNYWAQGTQVTVSS | high polyreactivity
17 | QVQLVESGGGLVQSGGSLRLSCAASGRTFFKYSMGWYRQAPGKEREMVATITSSGGITYADSVKGRFTISRDNAKNSVYLQMNSLKPEDTAVYYCNARVWVTHYSELNYWGQGTQVTVSS | low polyreactivity
18 | QVQLVESGGGLVQSGGSLRLSCAASGRTFGYNAMGWYRQAPGKERELVAAISRSGDSTYYADSVKGRFTISRDNAKNTVYLQMNSLNPEVTAVFYCATRYVTTGYDYWGQGTQVTVSS | low polyreactivity
19 | QVQLVESGGGLVQSGGSLRLSCAASGRTFKSYAMGWYRQAPGKERELVAAITWSGGSTYYADSVKGRFTISRDNAKITVYFQMNSLKPEDTAVYYCAADSVYYYWYGYDYWGQGTQVTVSS | low polyreactivity
20 | QVQLVESGGGLVQSGGSLRLSCAASGRTFYNNAMGWYRQAPGKERELVATINNRGGTTYYADSVKGRFTISRDNAKNTVYLQMNSLKPEDTAVYYCANSAQRYSYRYYYWGQGTQVTVSS | high polyreactivity
21 | QVQLVESGGGLVQSGGSLRLSCAASGSIFDFYAMGWHRQAPGKERELVATITASGGSTYYADSVKGRFTISRDNAKITVYLQMNSLKPVDTAVYYCNADSVYWGQGTQVTVSS | low polyreactivity
22 | QVQLVESGGGLVQSGGSLRLSCAASGSILKPYAMGWYRQAPGKERELVAAIRSSGGRTNYADSVKGRFTISRDNAKNSVYLQMNSLKPEDTAVYYCAAGYVSYWYYRYDYWGQGTQVTVSS | high polyreactivity

Row | Sequence | polyreactivity (PSR sort gate)
23 | QVQLVESGGGLVQSGGSLRLSCAASGSTFASNAMGWYRQAPGTEMELVAAISRSADSTYYADSVKGRFTISRDNAKNTVYLQMNSLKPEDTAVYYCAARHSRYRNPKYYYWGQGTQVTVSS | high polyreactivity
24 | QVQLVESGGGLVQSGGSLRLSCAASGSTFGFYAMGGYRQAPGKERELVAAISRGGSTNYADSVKGRFTISRDNAKNTVSCQMNSLKPEDTAVYYCAKAYHATSYYWGQGTQVTVSS | low polyreactivity
25 | QVQLVESGGGLVQSGGSLRLSCAASGSTFTLYAMGWYRQAPGKERELVAAIRASVGRTYNADSVKGRFTISRDNAKNTVYLQMNSLKPEDTAVYYCNAYGRYGKFRVEYDYWGQGTQVTVSS | low polyreactivity
26 | QVQLVESGGGLVQSGGSLRLSCAASGSTIPSYALGWYRHAPGKERELVASITYSDGTTSYADSVKGRFTISRDNAKNTVYLQMNSLKPEDTAVYYCNAVYYREGMDYWGQGTQVTVSS | low polyreactivity
27 | QVQLVESGGGLVQSGGSLRLSCDASGITFKYAMGCYSQAPWKESELVAAISWSGGRTYYADSVKGRFTISRDNAKNTVYLQMNSLKPEDTAVYYCNAYRRYNDEDYWGQGTQVTVSS | high polyreactivity
28 | QVQLVESGGGLVQTGGSLRLICAASGRTFAVNDMGWYRQARGKERELVAAITWRGDSTYYADSVKGRFTISRDNAKNTVYLQMISLKPEDTAVYYCNAYYDGDWRYTSLETGEHWGQGTQVTVSS | low polyreactivity
29 | QVQLVESGGGLVQTGGSLRLSCAASGIIFYYYAMGWYRQAPGKERELVAAISWSGDGTYYADSVKGRFTISRDNAKNTVYLQMNSLKPEDTAVYYCAALNDGFTAYDYLDEYTDYGYWGQGTQVTVSS | low polyreactivity
30 | QVQLVESGGGLVQVGGSLRLSCAASGITLSYYAMGWYRQAPRKERELVASITVSRTSTYYADSVKGRFTISRDNAKNTVYLQMNSLKPEDTEVYYCNADGDHPYRRNDYWGQGTQVTVSS | low polyreactivity
31 | QVQLVESGGGLVRAGGSLRLSCAASGSTFTNNAMGWYRQAPGKERELVAAITWIGGNTYYADTVKGRFTISRDNAKNTVYLQMNSLKPEDTAVYYCAADRRSRYHDVYGWLYYYWGQGTQVTVSS | low polyreactivity
32 | QVQLVESGGGLYQAGGSLRLNCAASGYIFQTYAMVWYRQAPGKEREFVAAITSGAGRTSYADSVKGRFTISRDNAKNTVYLELNSLIPEVTAVYYCNARGRKRSYHRKSSDPYGYWGQGNQVTVSS | high polyreactivity
33 | QVQLVESGGGLYQAGGSLRLSCAASGRIFRYYAMGWYRQAPGKERELVAAINWSGGSTYYADSVKGRFTISRDNAKNTVYLQMNSLKPEDTAVYYCNTRWYVGDDWGQGTQVTVSS | high polyreactivity
34 | QVQLVESGGGLYQAGGSLRLTCAASGNIFYINTMGWYRQAPGKEMELVAAIEASDGSTYYADSVKGRFTISRDKAKNTVYLLMNSLKPEVTAVNYCATRRGYDSVYYFYTLWYYYWGQGTQVTVSS | low polyreactivity
35 | QVQLVESGGGRVQAGGSLRLRCAASGRTFRYYAMVWYRQAPGKERELVAAISRTGGSTYYADSVKGRFTISRDNAKNNVYLQMNSLKPEDTAVYYCAARYAEYGSWGQGTQVTVSS | high polyreactivity
36 | QVQLVESGGGSLRLSCAASALTFGGYTMGWYRQAPGKERELVAAISSSDSTNYADSVKGRFTISRDNAKNTVYLQMNSLKPEDTAVYYCAADSGQWSRYSSFGDEGDSWGQGTEVTVSS | low polyreactivity
37 | QVQLVESGGGSLRLSCAASGLTFGGYTMGWSRQAPGKERELFAAISSSDSTNYADSVKGRFTISRDNAKNTVYLQMNSLKPEDTAVYYCAADSGQWCRFSSFGDEGDSWGQGTQVTVSS | low polyreactivity
38 | QVQLVESGGGSLRLSCAASGLTFGGYTMGWYRQAPGKERELVAAISSSDSTNYADSVKGRFTISRDNAKNTVYLQMNSLKPEDTAVYYCAADSGQWSRYSSFGDEGDSWGQGTQVTVSS | low polyreactivity
39 | QVQLVESGGGSVQAGGSLRLSCAASGFIFDGYTMGWYRQAPGKERELVAAISRSGGRTYYADSVKGRFTISRDNAKHTVYLQLNSLKPEDTAVYYCAVRYRQYSQTVASDYGYWGQGTQVTVSS | high polyreactivity
40 | QVQLVESGGGSVQAGGSLRLSCAASGSIFYPYTMGWSRQAPGKERELVAVITGSGGRTYYADSVKGRFTISRDNAKNTVYLQMNSLKPEDTAVYYCNASPFTVRYYKYEYWGQGTQVTVSS | low polyreactivity
41 | QVQLVESGGGVGQAGGSLRLSCAASGSTFDRYTMGWYRQAPGKERELVAAISISGGSTYYADSVKGRFTISRDNAKNTVYLQMNSLKPEVTEVYYCAARLDTVTDYYYWGQGTQVTVSS | low polyreactivity
42 | QVQLVESGGGVVQAGGSLRISCAASGSTFAANAMGWYRQAPGKERELVAAISTSGGRSYYADSVKGRFTISRDNAKNTLYLQMNSLKPEDSAGYYCAAYSRTSDRDFDYWGQGTQVTVSS | high polyreactivity
43 | QVQLVESGGGVVQAGGSLRLSCAASARTFYRNAMGWYRQAPGKERELVAAITGSGGSTYYADSVKGRFTISRDNAKNTVYLQMNSLKPEDTAVSYCAAGTRIYNSWIRFDYWGQGTQVTVSS | high polyreactivity
